# Reference: patent US8916149B2, “Preventing and treating sepsis” (University of Rochester, priority 2008, dated 2014)
# B1: rhAPC: Recombinant human activated protein C obtained from Eli Lilly; FDA-approved drug for severe sepsis (protein)
# chain 1: ANSFLEELRHSSLERECIEEICDFEEAKEIFQNVDDTLAFWSKHVDGDQCLVLPLEHPCASLCCGHGTCIDGIGSFSCDCRSGWEGRFCQREVSFLNCSLDNGGCTHYCLEEVGWRRCSCAPGYKLGDDLLQCHPAVKFPCGRPWKRMEKKRSHL
# chain 2: LIDGKMTRRGDSPWQVVLLDSKKKLACGAVLIHPSWVLTAAHCMDESKKLLVRLGEYDLRRWEKWELDLDIKEVFVHPNYSKSTTDNDIALLHLAQPATLSQTIVPICLPDSGLAERELNQAGQETLVTGWGYHSSREKEAKRNRTFVLNFIKIPVVPHNECSEVMSNMVSENMLCAGILGDRQDACEGDSGGPMVASFHGTWFLVGLVSWGEGCGLLHNYGVYTKVSRYLDWIHGHIRDKEAPQKSWAP
# Experiments:
# human neutrophils [1] = test: Under-agarose migration assay (directional migration); assay type: cell-based; details: 10 μg/ml rhAPC
# Method: Delta T dishes (Bioptechs, Butler, Pa.) were coated with fibronectin (FN). Plates were then rinsed with the appropriate media and allowed to air-dry. Molten agarose (Seakem GTG, FMC Bioproducts, Rockland, Me.) was prepared as described (Harler et al., J Immunol., 162:6792 (1999)). Two milliliters of the resulting gel was added to each dish and allowed to solidify at 4° C. for 5 min. Three wells that were 2 mm apart were prepared in the agarose using a template and a beveled punch that was coated with polymixin B. Care was taken to ensure that the plate bottom was not scratched. Punch sections were removed with an aspirator, and the gel was then equilibrated for one hour at 37° C. The wells were then aspirated and loaded with […] of one of the following: PBS (left well), a suspension containing approximately 200,000 cells (middle well), or a solution containing 5 pmol of fMLP (right well). […] The dishes were incubated for 60 min at 37° C., and then fixed with 10% buffered formalin. Counts were then made of the number of cells that had migrated 1 mm towards the right well (towards fMLP, directional migration), 0.5 mm towards the left and right wells (“straddle”), and 1 mm towards the left well (random migration). The experiments were repeated three times per condition.
# human neutrophils [2] = test: rhAPC binding to neutrophils in suspension (chromogenic substrate S-2366); details: 1 mM Ca2+ and 1 mM Mg2+ supplemented with 1 mM Mn2+
# Method: Control (PBS) or rhAPC-treated neutrophils were incubated with the indicated concentrations of MgCl2 and CaCl2. The LIBS of β1 and β3 integrins were detected by B44 and D3 mAb, respectively. *P<0.05 vs. PBS treated cells. […] Experiments were repeated on neutrophil preparations from three independent donors. In FIGS. 2A, 2C, 2D, 2E, and 2F, results are expressed as mean±SEM of three independent experiments.
# The best characterized integrin binding motif is the RGD sequence, which is present in FN, fibrinogen, von Willebrand factor, vitronectin, and a variety of other adhesion proteins. Many integrins that bind to extracellular protein ligands including α3β1, α5β1, αIIbβ3, and αVβ3, specifically interact with the RGD sequence of their target proteins. […] To test this hypothesis, rhAPC-binding assays were performed with neutrophils in suspension. The assay buffer containing 1 mM Ca^2+ and 1 mM Mg^2+ was supplemented with 1 mM Mn^2+ to activate cell surface integrins.
# [3] = test system: lipopolysaccharide (LPS)-induced pulmonary inflammation; details: intravenous administration; cited from earlier work
molecule,measurement,setting,value
B1,directional migration of neutrophils on FN towards fMLP,human neutrophils [1],decreased
same,rhAPC binding to the neutrophil surface,human neutrophils [2],significantly increased
same,LPS-induced pulmonary inflammation,[3],reduce
